Data published in PMC10234438.

Each substance was assayed on IMP3 (GST-/His-tagged) (human) (assay: EMSA). Conditions: EMSA: 10 mM Tris-HCl pH 7.5, 150 mM NaCl, 0.5 mM EDTA, 0.5 mM DTT, 0.1% NP-40, 5% glycerol, RNaseOUT, 1 ug tRNA, 1 ug BSA; 5 nM RNA; 30 min at 25 C, then 5 min ….

Substance	Kd [nM]
ANKRD17 linear	8.7
all-UG linear	48.8
101-mer linear	9.3

Same assay, conditions: circular (T4 RNA ligase); EMSA: 10 mM Tris-HCl pH 7.5, 150 mM NaCl, 0.5 mM EDTA, 0.5 mM DTT, 0.1% NP-40, 5% glycerol, RNaseOUT, 1 ug tRNA, 1 ug BSA; 5 nM RNA; 30 min at 25 C, then 5 min …

Substance	Kd [nM]
all-UG circRNA	60.3
101-mer circRNA	10.4
ANKRD17 circRNA	8.5
